Where two headings read alike, the source gives them in different places.
T1: P6-AA-1HGe-A
T1 chain: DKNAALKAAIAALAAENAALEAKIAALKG

T2: P6-AA-1HGe-D
T2 chain: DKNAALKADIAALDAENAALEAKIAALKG

T3: P6-AA-1HGe-H
T3 chain: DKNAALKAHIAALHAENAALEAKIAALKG

T4: P6-AA-1HGe-M
T4 chain: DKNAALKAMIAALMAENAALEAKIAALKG

T5: P6-AA-1HGe-Q
T5 chain: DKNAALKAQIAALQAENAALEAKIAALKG

T6: P6-AA-1HGe-R
T6 chain: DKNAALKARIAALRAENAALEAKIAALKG

T7: P6-AA-1HGe-S
T7 chain: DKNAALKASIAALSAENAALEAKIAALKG

T8: P6-AA-1HGe-T
T8 chain: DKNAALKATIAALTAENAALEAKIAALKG

T9: P6-AA-1HGe-W
T9 chain: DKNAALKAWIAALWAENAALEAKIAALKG

T10: APC2724-AA
T10 chain: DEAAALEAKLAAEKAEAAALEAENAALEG

T11: APC2811-AA
T11 chain: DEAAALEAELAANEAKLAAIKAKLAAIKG

T12: APC2981-AA
T12 chain: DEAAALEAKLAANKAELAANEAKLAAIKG

T13: APC3265-AA
T13 chain: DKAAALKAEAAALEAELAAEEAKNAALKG

T14: APC3323-AA
T14 chain: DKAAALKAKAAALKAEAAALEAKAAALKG

T15: APC3354-AA
T15 chain: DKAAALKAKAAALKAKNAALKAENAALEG

T16: APC3881-AA
T16 chain: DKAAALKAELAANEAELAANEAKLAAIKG

T17: APC4100-AA
T17 chain: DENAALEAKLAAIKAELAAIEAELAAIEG

T18: APC4336-AA
T18 chain: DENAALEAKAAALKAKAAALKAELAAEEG

T19: APC5009-AA
T19 chain: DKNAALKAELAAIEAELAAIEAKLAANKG

T20: APC542-AA
T20 chain: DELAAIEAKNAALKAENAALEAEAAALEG

T21: APC5531-AA
T21 chain: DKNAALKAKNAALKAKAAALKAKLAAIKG

T22: APC6088-AA
T22 chain: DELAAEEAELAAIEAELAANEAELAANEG

T23: APC7524-AA
T23 chain: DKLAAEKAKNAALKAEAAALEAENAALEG

T24: APC8401-AA
T24 chain: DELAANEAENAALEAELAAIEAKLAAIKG

T25: APC8516-AA
T25 chain: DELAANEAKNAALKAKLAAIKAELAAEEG

T26: APC9141-AA
T26 chain: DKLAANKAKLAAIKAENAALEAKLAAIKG

T27: APC9182-AA
T27 chain: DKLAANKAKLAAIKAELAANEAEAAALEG

T28: APC9291-AA
T28 chain: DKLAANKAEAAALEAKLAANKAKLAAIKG

T29: APC9806-AA
T29 chain: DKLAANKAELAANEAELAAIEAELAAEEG

T30: O5-AA
T30 chain: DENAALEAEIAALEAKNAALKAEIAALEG

T31: O6-AA
T31 chain: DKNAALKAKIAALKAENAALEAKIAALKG

T32: O7-AA
T32 chain: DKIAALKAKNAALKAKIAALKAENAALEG

T33: O8-AA
T33 chain: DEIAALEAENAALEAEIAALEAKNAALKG

T34: P10-AA
T34 chain: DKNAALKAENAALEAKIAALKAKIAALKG

T35: P9-AA
T35 chain: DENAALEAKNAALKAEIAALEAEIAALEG

T36: P8mSN
T36 chain: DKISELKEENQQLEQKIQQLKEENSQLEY

T37: P9mSN
T37 chain: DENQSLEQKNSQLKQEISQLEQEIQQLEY


Key:
[1] = target: T1, P6-AA-1HGe-A; experiment: two-hybrid library CCmax; conditions: mean of both orientations;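 also: natural log of median RNA to DNA barcode read ratio; higher means stronger binding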
[2] = target: T2, P6-AA-1HGe-D; experiment: two-hybrid library CCmax;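 also: natural log of median RNA to DNA barcode read ratio; higher means stronger binding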
[3] = target: T3, P6-AA-1HGe-H; experiment: two-hybrid library CCmax; conditions: mean of both orientations;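 also: natural log of median RNA to DNA barcode read ratio; higher means stronger binding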
[4] = target: T4, P6-AA-1HGe-M; experiment: two-hybrid library CCmax; conditions: mean of both orientations;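 also: natural log of median RNA to DNA barcode read ratio; higher means stronger binding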
[5] = target: T5, P6-AA-1HGe-Q; experiment: two-hybrid library CCmax; conditions: mean of both orientations;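 also: natural log of median RNA to DNA barcode read ratio; higher means stronger binding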
[6] = target: T6, P6-AA-1HGe-R; experiment: two-hybrid library CCmax; conditions: mean of both orientations;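 also: natural log of median RNA to DNA barcode read ratio; higher means stronger binding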
[7] = target: T7, P6-AA-1HGe-S; experiment: two-hybrid library CCmax; conditions: mean of both orientations
[8] = target: T8, P6-AA-1HGe-T; experiment: two-hybrid library CCmax; conditions: mean of both orientations
[9] = target: T9, P6-AA-1HGe-W; experiment: two-hybrid library CCmax; conditions: mean of both orientations
[10] = target: T10, APC2724-AA; experiment: two-hybrid library CCmax
[11] = target: T11, APC2811-AA; experiment: two-hybrid library CCmax; conditions: mean of both orientations
[12] = target: T12, APC2981-AA; experiment: two-hybrid library CCmax; conditions: mean of both orientations
[13] = target: T13, APC3265-AA; experiment: two-hybrid library CCmax; conditions: mean of both orientations
[14] = target: T14, APC3323-AA; experiment: two-hybrid library CCmax; conditions: mean of both orientations
[15] = target: T15, APC3354-AA; experiment: two-hybrid library CCmax; conditions: mean of both orientations
[16] = target: T16, APC3881-AA; experiment: two-hybrid library CCmax; conditions: mean of both orientations
[17] = target: T17, APC4100-AA; experiment: two-hybrid library CCmax
[18] = target: T18, APC4336-AA; experiment: two-hybrid library CCmax; conditions: mean of both orientations
[19] = target: T19, APC5009-AA; experiment: two-hybrid library CCmax; conditions: mean of both orientations
[20] = target: T20, APC542-AA; experiment: two-hybrid library CCmax; conditions: mean of both orientations
[21] = target: T21, APC5531-AA; experiment: two-hybrid library CCmax; conditions: mean of both orientations
[22] = target: T22, APC6088-AA; experiment: two-hybrid library CCmax; conditions: mean of both orientations
[23] = target: T23, APC7524-AA; experiment: two-hybrid library CCmax; conditions: mean of both orientations
[24] = target: T24, APC8401-AA; experiment: two-hybrid library CCmax; conditions: mean of both orientations
[25] = target: T25, APC8516-AA; experiment: two-hybrid library CCmax; conditions: mean of both orientations
[26] = target: T26, APC9141-AA; experiment: two-hybrid library CCmax; conditions: mean of both orientations
[27] = target: T27, APC9182-AA; experiment: two-hybrid library CCmax; conditions: mean of both orientations
[28] = target: T28, APC9291-AA; experiment: two-hybrid library CCmax; conditions: mean of both orientations
[29] = target: T29, APC9806-AA; experiment: two-hybrid library CCmax; conditions: mean of both orientations
[30] = target: T30, O5-AA; experiment: two-hybrid library CCmax
[31] = target: T31, O6-AA; experiment: two-hybrid library CCmax; conditions: mean of both orientations
[32] = target: T32, O7-AA; experiment: two-hybrid library CCmax; conditions: mean of both orientations
[33] = target: T33, O8-AA; experiment: two-hybrid library CCmax; conditions: mean of both orientations
[34] = target: T34, P10-AA; experiment: two-hybrid library CCmax; conditions: mean of both orientations
[35] = target: T35, P9-AA; experiment: two-hybrid library CCmax; conditions: mean of both orientations
[36] = target: T36, P8mSN; experiment: two-hybrid library CCNG1
[37] = target: T37, P9mSN; experiment: two-hybrid library CCNG1

| Binder | interaction score [1] | interaction score ([2]; mean of both orientations) | interaction score [3] | interaction score [4] | interaction score [5] | interaction score [6] | interaction score [7] | interaction score [8] | interaction score [9] | also measured |
| --- | --- | --- | --- | --- | --- | --- | --- | --- | --- | --- |
| DENAALEADIAALDAKNAALKAEIAALEG [P5-AA-1HGe-D] | 0.812 | -1.28 | 0.69 | 0.758 | 1.12 | 1.62 | -0.145 | 1.14 | -0.238 | – |
| DENAALEAAIAALAAKNAALKAEIAALEG [P5-AA-1HGe-A] | 2.12 | 1.06 | 1.73 | 2.21 | 2.31 | 2.03 | 1.63 | 2.02 | 1.57 | – |
| DEAAALEAKLAAEKAEAAALEAENAALEG [APC2724-AA] | – | – | – | – | – | – | – | – | – | interaction score [10]: -1.55; interaction score [11]: -1.76; interaction score [12]: -1.68; interaction score [13]: -1.62; interaction score [14]: -1.8; interaction score [15]: -1.48; interaction score [16]: -2.62; interaction score [17]: -1.68; interaction score [18]: -2.23; interaction score [19]: -1.67; interaction score [20]: -1.75; interaction score [21]: -1.53; interaction score [22]: -1.76; interaction score [23]: -1.54; interaction score [24]: -1.54; interaction score [25]: -1.9; interaction score [26]: -3.52; interaction score [27]: -1.95; interaction score [28]: -1.76; interaction score [29]: -1.79 |
| DENAALEAEIAALEAKNAALKAEIAALEG [O5-AA] | 2.15 | 0.905 | 2.44 | 2.3 | 2.4 | 2.38 | 2.12 | 2.21 | 2.02 | interaction score [30]: -1.71; interaction score [31]: 1.88; interaction score [32]: -0.71; interaction score [33]: -0.935; interaction score [34]: 0.434; interaction score [35]: -1.56 |
| DKISELKEENQQLEQKIQQLKEENSQLEY [P8mSN] | – | – | – | – | – | – | – | – | – | interaction score [36]: -0.489; interaction score [37]: -1.04 |
| DENAALEARIAALRAKNAALKAEIAALEG [P5-AA-1HGe-R] | 2.25 | 1.74 | 1.64 | 1.53 | 1.9 | 1.45 | 1.48 | 1.66 | 1.25 | – |
| DENAALEASIAALSAKNAALKAEIAALEG [P5-AA-1HGe-S] | 1.91 | 0.0672 | 1.75 | 1.86 | 2.1 | 2.01 | 1.13 | 1.76 | 0.993 | – |
| DENAALEAQIAALQAKNAALKAEIAALEG [P5-AA-1HGe-Q] | 2.25 | 1.58 | 2.05 | 2.3 | 2.07 | 2.05 | 2.03 | 2.32 | 1.97 | – |
| DENAALEAMIAALMAKNAALKAEIAALEG [P5-AA-1HGe-M] | 2.5 | 1.82 | 2.03 | 2.35 | 2.27 | 1.93 | 1.92 | 2.3 | 2.11 | – |

Second part, led by results:

| interaction score [1] | interaction score ([2]; mean of both orientations) | interaction score [3] | interaction score [4] | interaction score [5] | interaction score [6] | interaction score [7] | interaction score [8] | interaction score [9] | Binder | also measured |
| --- | --- | --- | --- | --- | --- | --- | --- | --- | --- | --- |
| 2.2 | – | 2.03 | 2.18 | 2.32 | 2.02 | 1.91 | 2.05 | 1.71 | DENAALEATIAALTAKNAALKAEIAALEG [P5-AA-1HGe-T] | interaction score [2]: 1.95 |
| 1.97 | 0.67 | 1.34 | 1.92 | 2.17 | 1.42 | 1.46 | 2.11 | 0.892 | DENAALEAWIAALWAKNAALKAEIAALEG [P5-AA-1HGe-W] | – |
| 1.95 | 1.37 | 1.95 | 1.95 | 2.22 | 1.82 | 1.94 | 2.24 | 1.32 | DENAALEAYIAALYAKNAALKAEIAALEG [P5-AA-1HGe-Y] | – |

— publication PMC10397247
